Consider two molecules from patent US7700353B2, “Compositions and methods for inducing apoptosis in tumor cells” (E-P Therapeutics, Inc., priority 1998, dated 2010).

The test system of assay [1] is SK-N-F1 neuroblastoma cells. Kind of assay: Neurite-like process outgrowth / morphological differentiation. It counts as cell-based, human. The procedure: Cells under various treatment conditions were maintained at 37° C. in a 5% CO2 incubator and observed from 30 minutes to 72 hours after incubation (synthetic human Ea- and Eb-peptide were chemically synthesized at the Biotechnology Center, University of Connecticut). For treatment with synthetic hEa, hEb peptide or hlGF-I, 1×10^5 cells were plated in each well of a 12-well culture plate in DMEM/F12 (1:1) supplemented with 0.4-3.2 µM of synthetic hEa-, hEb-peptide and/or 5-10 nM of hlGF-I.
Neuroblastoma SK-N-F1 cells (10^5) were seeded into 12-well culture plates in DMEM/F12 (1:1) supplemented with 0-3.2 µM of synthetic hEb-peptide, or buffer control, and incubated at 37° C. in a 5% CO2 humidified incubator.
Cell images were taken by random sampling at various time points using a MicroMAX CCD camera (Princeton Instruments, Bozeman, Mont.). Approximately 1000 cells were analyzed from each treatment, carried out in triplicate. Cells with neurites longer than one cell body diameter (>20 µm for SK-N-F1 cells) were scored as positive neurite-bearing (Fagerstrom, et al., Cell Growth Differ., 7: 775-85, 1996; Morrione, et al., Cancer Res. 60: 2263-72, 2000). The percentage of neurite-bearing cells and the respective length of neurites were measured with reference to a stage micrometer and analyzed using the public domain NIH Image program (developed at the U.S. National Institutes of Health and available on the Internet at http://rsb.info.nih.gov/nih-image).
To further characterize the dose-response relationship and time course of hEb peptide in inducing neurite-like process outgrowth, SK-N-F1 neuroblastoma cells were treated with various amounts (0 to 3.2 µM) of hEb peptide over a course of 72 hours. Images of cells were taken by random sampling after 1 h, 6 h, 24 h, 48 h and 72 h of incubation (see FIG. 11B). The average length of neurite-like process outgrowth was measured by random sampling of more than 1000 cells at various time points. The neurite-like processes started to be visible as early as 0.5-1 hour after the addition of hEb peptide. The effect of hEb peptide in inducing neurite-like outgrowth was dose-dependent, as evident from a comparison of cells treated with 0.4 µM hEb peptide with those treated with 0.8-3.2 µM hEb peptide over 24-72 hours. The maximum effect of hEb peptide was observed 48 hours after the addition of 3.2 µM hEb peptide, with an average neurite length of 50 to 60 µm (Table 1, below).

Assay [2] deals with neuroblastoma SK-N-F1 cells. As to the kind of experiment: Soft agar colony formation (hEb peptide). It is filed as cell-based, human. The note with it: 3.2 μM. As for the experimental part:
The effect of hEb-peptide on in vitro colony formation was tested in the presence or absence of either the mature hlGF-I or fetal bovine serum (FIG. 12). Human neuroblastoma SK-N-F1 cells (10^4) were mixed with 0.4% soft agar supplemented with or without hEb peptide (3.2 µM), IGF-I (5 nM) and/or fetal bovine serum (2.5%), as indicated. The cell mixtures were seeded on top of a solidified basal medium DMEM/F12 (1:1) containing 0.5% agar. Medium supplemented with various peptides or serum were overlaid on top of the solidified cell layer followed by a two-week period incubation at 37° C. in a 5% CO2 humidified incubator. The percentage of cells formed into colonies with a diameter greater than 100 µm Macpherson, Tissue culture methods and applications, pp 276-80: N.Y. Academic Press, 1973) were scored in triplicate and subjected to Student t-test analysis. At least three independent assays under each treatment conditions were carried out.

The subject of assay [3] is SK-N-F1 neuroblastoma cells. As to the kind of experiment: Neurite-like process outgrowth / morphological differentiation. The note with it: 2 h. It is filed as cell-based, human.
Assay [4] deals with ZR75-1 and MDA-MB 231 cell lines (single-cell clones). As to the kind of experiment: Morphological change in single-cell malignant clones. It counts as cell-based, human. As for the experimental part: Because each of these tumor cell lines obtained from ATCC contains a mixed population of tumorous and nontumorous cells, only between 25-40% of the cells from each cell line responded to induction by rtEa-4-peptide. […] About 1 -2×10^5 cells resuspended in their respective basal medium without FBS were plated in a 6-well culture chamber. Different amounts of trout Ea-4-peptide (0.4 µM, 0.8 µM and 1.6 µM) or control protein (1.6 µM) were added to the wells, and the cell cultures were incubated at 37° C. under a humidified atmosphere of 5% CO2. Twenty-four hours after initiation of the treatment, cells were observed under an Olympic inverted microscope equipped with phase contrast objective lenses (200× magnification).

The next assay relates to MDA-MB-231 (C) cells. Kind of assay: Apoptosis observed under microscope. It is filed as cell-based, human. The note with it: about 1.5 μM, about two hours. The procedure:
FIG. 21 depicts apoptosis in MDA-MB-231 cells induced by rtEa4-peptide. MDA-MB-231 cells treated with about 1.5 μM of rtEa4-peptide (A, B, and C) or control peptide (D) for about two hours and observed under a microscope. Arrows indicate apoptotic cells.
Killing of cancer cells by E-peptide could be the consequence of apoptosis or necrosis. To differentiate these two possibilities, MDA-MB-231 (C) cells were grown in culture in the presence of about 1.5 μM of trout Ea4-peptide. After about two hours of incubation the cells were observed under a microscope. […] FIG. 22 presents the results of the effect of trout Ea4-peptide on induction of apoptosis in ovarian cancer cells (SKOV-3).

Assay [5] concerns cultured BALB/3T3 fibroblast. To be noted: recombinant peptides; cited from earlier work.
Assay [6] relates to NIH 3T3 cells and caprine mammary epithelium cells (CMEC). To be noted: recombinant peptides; cited from earlier work.

B1: hEb: chemically synthesized human Eb peptide of pro-IGF-I, 77 amino acid residues (SEQ ID NO:1) (peptide, listed as Homo sapiens)
chain: RSVRAQRHTDMPKTQKYQPPSTNKNTKSQRRKGWPKTHPGGEQKEGTEASLQIRGKKKEQRREIGSRNAECRGKKGK
In the case of B1, the Neurite length was 31 ± 7.6 μm in assay [1] (0.4 μM, 6 h); 29 ± 5.2 μm in assay [1] (0.4 μM, 24 h); 35 ± 0.9 μm in assay [1] (0.4 μM, 48 h); 32 ± 3.1 μm in assay [1] (0.4 μM, 72 h); 33 ± 2.1 μm in assay [1] (0.8 μM, 2 h); 36 ± 0.6 μm in assay [1] (0.8 μM, 6 h). Also, the Neurite length in assay [1] (0.8 μM, 24 h) was 38 ± 3.9 μm; in assay [1] (0.8 μM, 48 h), 43 ± 1.0 μm; in assay [1] (0.8 μM, 72 h), 41 ± 2.5 μm; in assay [1] (1.6 μM, 6 h) it was 38 ± 3.5 μm; in assay [1] (1.6 μM, 24 h) it was 39 ± 1.8 μm; in assay [1] (1.6 μM, 48 h), 47 ± 3.9 μm. The Neurite length in assay [1] (1.6 μM, 72 h) is on record as 48 ± 2.8 μm; in assay [1] (3.2 μM, 6 h), 39 ± 2.2 μm; in assay [1] (3.2 μM, 24 h), 45 ± 1.7 μm; in assay [1] (3.2 μM, 48 h) it was 52 ± 3.7 μm; in assay [1] (3.2 μM, 72 h), 48 ± 2.7 μm; in assay [3] (0.4 μM), 30 ± 1.6 μm. Also, the Neurite length in assay [3] (1.6 μM) worked out at 33 ± 3.8 μm; in assay [3] (3.2 μM), 33 ± 2.8 μm. Besides, in assay [1] (1.6 μM or 3.2 μM), the morphological change entry was “differentiated into a neuron-like morphology”. For the same molecule, the “time at which neurite-like processes started to be visible” value in assay [1] (after addition of peptide) is 0.5 to 1 h. Also, the “increase in the percentage of neurite-bearing cells” value in assay [1] (hEb-peptide combined with mature hIGF-I, 1-4 hours after stimulation) was 20-30%. Also, the “in vitro effective concentration” value in assay [1] (synthetic peptide) lay within 0.4 to 3.2 µM. For the same molecule, the “inhibition of colony formation” value in assay [2] (absence of serum and growth factors, colonies >100 μm) came out at 64%; in assay [2] (presence of FBS (2.5%)) it was 73%; in assay [2] (presence of hIGF-I (5 nM)), 59%. The “inhibitory effect on anchorage-independent growth” value in assay [2] (over all medium conditions) is on record as 59-73%.

B2: rtEa-4: recombinant Ea-4 peptide of rainbow trout pro-IGF-I, 74 amino acid residues (SEQ ID NO: 2) (protein)
chain: RSVRAQRHTDMPRTPKVSTAVQNVDRGTERRTAQHPDKTKTKKKPLSGHSHPSCKEVHQKNSSRGNTGGRNYRM
modifications: Oncorhynchus mykiss
Consider B2, for which the “extent of the morphological change” value in assay [4] (0.4 to 1.6 μM) is “proportional to the amounts”. The “cells responsive to treatment” value in assay [4] (purified single-cell clones, 0.4-1.6 μM, 24 hours) is ~95%. Moreover, in the assay with MDA-MB-231 (C) cells, the “apoptosis (microscopy)” value is given as “going through apoptosis”. For the same molecule, the mitogenic activity result in assay [5] and in assay [6] was “possess mitogenic activity” each time.
